Reference: the Human Domainome abundance scans (Beltran et al. 2025)
± gives the uncertainty stated by the source.

B1: Cell division cycle and apoptosis regulator protein 1, residues 625 to 674; numbered along this chain, Q8IX12 (parent)
chain: ISTPTHWSKLDPKTMKVNDLRKELESRALSSKGLKSQLIARLTKQLKVEE

Variants of: B1
Assay: abundance fitness (aPCA) (normalised: wild type 0, dead -1); higher = more abundant; growth selection in yeast, the domain comes from the species named
Conditions: Homo sapiens

Variant | abundance fitness
S31A | 0.005 ± 0.034
S31V | -0.041 ± 0.041
S31L | -0.084 ± 0.032
S31I | 0.047 ± 0.06
S31N | -0.095 ± 0.059
S31K | -0.132 ± 0.057
S31G | 0.014 ± 0.027
S31F | -0.101 ± 0.053
S31C | -0.013 ± 0.046
S31M | -0.066 ± 0.038
S31T | -0.052 ± 0.038
S31W | -0.097 ± 0.029
S31P | -0.062 ± 0.045
S31H | 0.031 ± 0.059
S31Q | 0.079 ± 0.032
S31E | -0.106 ± 0.044
S31D | -0.156 ± 0.05
S31Y | -0.123 ± 0.071
L34I | -0.069 ± 0.041
L34N | -0.157 ± 0.067
L34Q | -0.015 ± 0.037

Variant | abundance fitness
L34R | 0.048 ± 0.034
L34K | 0.079 ± 0.038
L34T | -0.06 ± 0.045
L34P | -0.011 ± 0.055
L34H | -0.026 ± 0.043
L34M | -0.072 ± 0.051
L34Y | -0.033 ± 0.063
L34W | -0.151 ± 0.034
L34D | -0.062 ± 0.067
L34F | -0.195 ± 0.052
L34A | -0.111 ± 0.03
L34S | -0.016 ± 0.037
L34C | -0.075 ± 0.043
L34E | -0.113 ± 0.031
L29Y | -0.384 ± 0.048
L29W | -0.746 ± 0.039
L29V | -0.476 ± 0.034
L29K | -0.226 ± 0.056
L29F | -0.112 ± 0.058
L29H | -0.286 ± 0.066
L29Q | -0.172 ± 0.051

Variant | abundance fitness
L29I | 0.045 ± 0.054
L29D | -0.732 ± 0.1
L29E | -0.46 ± 0.046
L29A | -0.899 ± 0.059
L29P | -0.86 ± 0.098
L29N | -0.552 ± 0.083
L29G | -0.853 ± 0.04
L29M | -0.021 ± 0.052
L29R | -0.213 ± 0.031
L29S | -0.368 ± 0.031
S36A | -0.121 ± 0.043
S36H | -0.195 ± 0.058
S36D | -0.085 ± 0.065
S36L | -0.159 ± 0.037
S36W | -0.114 ± 0.032
S36M | -0.169 ± 0.05
S36E | -0.151 ± 0.047
S36Y | -0.115 ± 0.043
S36N | -0.146 ± 0.064
S36F | -0.186 ± 0.05
S36T | -0.049 ± 0.052

Variant | abundance fitness
S36R | -0.115 ± 0.032
S36P | -0.005 ± 0.048
S36K | -0.118 ± 0.062
S36V | -0.105 ± 0.043
R27G | -0.743 ± 0.045
R27S | -0.818 ± 0.043
R27F | -1.02 ± 0.16
R27N | -0.871 ± 0.1
R27L | -0.805 ± 0.049
R27M | -0.591 ± 0.082
R27K | -0.822 ± 0.089
R27P | -0.784 ± 0.12
R27Q | -0.845 ± 0.098
R27T | -0.948 ± 0.14
R27I | -1.1 ± 0.14
R27V | -0.678 ± 0.055
R27Y | -0.995 ± 0.21
R27H | -0.765 ± 0.11
Q37C | -0.04 ± 0.054
Q37A | 0.004 ± 0.048
